# Experiment: yeast display, Sf9 membrane polyspecificity reagent, FACS + sequencing; frameworks hold sequencing errors
# Outline: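 Nanobodies from a synthetic yeast display library (Saccharomyces cerevisiae BJ5465), induced 36–48 hours with galactose, were stained 1 hour at 4 °C with 10% biotinylated, detergent-solubilized Sf9 membrane reagent, enriched on streptavidin microbeads, then FACS-sorted. Anti-HA (expression) and streptavidin (reagent binding) fluorescence set low and high (top ~1%) gates. Polyreactivity labels come from the gate of origin. Genes were colony-PCR amplified, MiSeq 2 × 250 sequenced and filtered by CDR length.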
row,Sequence,polyreactivity (PSR sort gate)
1,QVQLVESGGGLVQAGGSLRLSCAASGRIIGYYAMGWYRQAPGKERELVAAISRRGGSTYYADSVKGRFTISRDNAKNTVYLQINSLKPEDTAVYYCNADRVLTRPRYDYWGQGTQVTVSS,low polyreactivity
2,QVQIVESGGGLVQAGGSLSLSCASSGSTIGDYAMGWYRQAPGKERELVAAINSGDSKNYADSVKGRFTISRDNAKNTVYLQMNSLKPEDTAVYYCAAEPLSISYVYYKYKYEYWGQGTQVTVSS,low polyreactivity
3,QVQLVESGGGLVQAGGSLRLSCAASGSIFTWNAMGWYSQAPGKERELVAAISWIGDSTYYADSVKGRFTISRDNAKNTVYLQMNSLKPEDTAVYYCAAEYAQGSRELESWGQGTQVTVSS,low polyreactivity
4,QVQLVESGGGLVQAGGSLRLSCAASGRIFYTYAMGWYRQAPGKERELVAAIRWRGGSTHYADSVKGRFTISRDNAKNTVYLQMNSLKPEDTAVYYCARDGGWYIDGRAYTGDYWGQGTQVTVSS,high polyreactivity
5,QVQLVESGGGLVQAGGSLRLICAASGLTFKRYAMGWYRQAPGKEREFVAAISAGGASTHYADSVKGRFTISRDNAKNTVYLQMNSLKPEDTAVYYCATDYRSFRPSFGYWGQGTQVTVSS,low polyreactivity
6,QVQLVESGGGLVQAGGSLRLSCAASGFIFTANAMGWYRQAPGKESELVANINRSGDSTYYADSVKGRFTISRDNAKNTVYLQMNSLKPEDTAVYYCNKDWHSQVFSAYNSYDYWGQGTQVTVSS,low polyreactivity
7,QVQLVESGGGIVQAGGSLRLSCAASGRTFLGYAMGWYRQAPGKERELVAAISYSGSSTYYADSVKGRFTISRDNAKNTVYLQMNSLKPEDTAVYYCAAQFYFLFDYWGQGTQVTVSS,low polyreactivity
8,QVQLVESGGGLVQAGGSLRLSCAASGNTFYKNTMGWYRQAPGKERELVAAISQRGTRTYYADSVKGRFTISRDNAKNSVYLQLYSLNPEDTAVYYCATDLSQVGFDYWGQGTQVTVSS,high polyreactivity
9,QVQLQESGGGLVQAGGSLRLSCAASGSIFVSVTMGWYRQAPGKERELVASIGRGSTTNHADSVKGRFTISRDNAKNIVYLLMNSLKPEDTEVYYCAALESYGKYHGYWGQGTQVTVSS,low polyreactivity
10,QVQLVESGGGLVQAGGSLRLSCAASGRTFFSYTMGWYRQAPGKERELVAAISDSDGRTYYADSVKGRFTISRDNAKNTVYLQMNSLKPEDTAVYYCAAVPDKYWSRVRRYLFEHNYWGQGTQVTVSS,low polyreactivity
11,QVQLVESGGGLVQAGGSLRLSCGASGFTFQFYDRGGYRQAPGKEREFVATITWRAGSTYSADSVKGRFTISRDNAKNTVYLQMNSLKPEDTAVYYCNADYYRHSLDYDYVGYDYWGQGTQVTVSS,low polyreactivity
12,QVQLEESGGCLVQAGGSLRLSCAASGITFYVYAMGWSRQAPGKERELVAAISSSGGSTYYADSVTGRFTISRDNAKNTGALQMNSLKPEDTAVYYCPADKCFYYGRKYGKYDYWGQGTQVTVSS,high polyreactivity
13,QVQLVESGGGLVQAGGSLRLSCAASGSTFESNTMGWYRQAPGKERELVAASSYSGGRTYYADSVKGRFTISRVNAKNTVYFQMNILKPEDTAVYSCAARWSVSYRMYYWGQGTQVTVSS,high polyreactivity
14,QVQLVESGGGLVQAGGSLRLSCAASGSTFGYYGMGWYRQAPGKETELVAAISTGGRTNYADSVKGRFTISRDNAKNTVYLQMNSLKPEDTAVYYCAADFLSPAYRPSWYRFDYWGLGTQVTVSS,low polyreactivity
15,QVQLVESGGGLVQAGGSLRLSSAASGRTLFDNAMGWYRQAPGKEREWVAAIRSDGNTNYADSVKGRFTISRDNAKNTVYLQMNSLKPEDTAVYYCNARSYVGSSRDNYWGQGTQVTVSS,low polyreactivity
16,QVQLVESGGGLVQAGGSLRLSCAASGITIKRYAIGWYRQAPGKEREFVATISQSGTSTYYADSVKGRFTISRDNAMNTVYLQMNSLKPEDTAVYYCAADYIGYWYGYYSWGQGTQVTVSS,low polyreactivity
17,QVQLVESGGGLVQAGGSIRLSCAASGSSFVSYAMGWYRQAPGKERELVATISWRGGSTYYADSVKGRFTISRDNAMNTVYLQMNSLKTEDTAVYYCAADVWHSQYYYGYEYWGQGTQVTVSS,low polyreactivity
18,QVQLVESGGGLVQAGGSLRLSCAASGITFPYYAMGWYRQAPGKERELVAAITIRSGRTYYADSVKGRFTISRDNAKNTVYLQMNSLKPEDTAVYYCAARLSNTYGYWGQGTQVTVSS,high polyreactivity
19,QVQLVESGGGLVQAGGSLRLSCAASGRIFGYNAMGWYRQAPGKERELVATISGRGGSTYYADSVKGRFTISRDNAKNTVYLQMNSLKPEDTAVYYCNAKRKYGRFPKKYYYWGQGTQVTVSS,high polyreactivity
20,QVQLVESGGGLVQAGGSLRLSCAASGRILYRNTMGWYRQAPGKERELVAAISRSGGSTYYADSVKGRFTISRDNAKNTVYLQMNSLKPEDTAVYYCAKSVVARGASTYIGGFYYWGQGTQVTVSS,high polyreactivity
21,QVQLVESGGGLVQAGGSLRLTCAASGSTFRHNAMGWYRQAPGKETELVAVITDGASTNYADSVKGRFTMSRDNAKNTVYLQLNSLKPEDTAVYYCAAYHRGYYTGREYYYWGQGTQVTVSS,low polyreactivity
22,QDQLVESGGGLVQAGGSLRLSCAASGLTIYHYAMGWYRQAPGKERELVADISSGGSTSYADSVKGRFTISRDNAKNTVYLQMNSLKPEDTAVYYCAADYTWERYHRQIFRLDYWGQGTQVTVSS,low polyreactivity

row,Sequence,polyreactivity (PSR sort gate)
1,QVKLVESGGGLVQAGGSLRLSCAASGGTFTLYAMGWYRQAPGKERELVAAISTSGGSTYYADSVKGRFTISRDNAKNTVYLQMNSLKPEDTAVYYCAAVTRYAGRIRYGYWGQGTQVTVSS,high polyreactivity
2,QVQLVESGGGLVQAGGSLRLSCAASGFTFPFYTMGWYRQAPGKERELVAAISRGGSTNYADSVKGRFTISRDNAKNTVYLQMNSLKPEDTAVSYCNKRYYRDLIGYYWGQGTQVTVSS,high polyreactivity
3,QVQLVESGGGLVQAGGSLRLSCAASGSILAYYARGWYRQAPGQERELVADIRAGGGNTYYADSVKGRFTISRDNAKNTVYLQMNSLKPEDTAVYYCNADWHFWYKWESYDYDYWGQGTQVTVSS,low polyreactivity
4,QVQLVESGGGLVQAGGSLRLSCAASGSIFGRYVMGWYRQAPGKERELVATISSGGSTYYADSVKGRFTISRDNAKNTVYLQMNSLKPEDTAVYYCAASYSRFVDWIGDPGYDYWGQGTQVTVSS,low polyreactivity
5,QFQLVESGGGLVQAGGSLRLSCAASGRTFASNAMGWYRQAPGKERELVADITWDGGRTYYADSVKGRFTISRDNAKNTVYLQMNSLKPEDTAVYYCAARDTFPRRYGYWGQGTQVTVSS,high polyreactivity
6,QLQLVESGGGLVQAGGSLRLSCAASGFIFSTYAMGWYRQAPGKERELVAAISRSGGSTYYADSVKGRFTISRDNAKNTVYLQMNSLKPEDTAVYYCNLSQAAFRTGYDYWGQGTQVTVSS,high polyreactivity
7,QVQLVESGGGIVQAVGSLRLSCAASGSTFRLYAMGWYRQAPGKERELVAAISSNGVRTYYADSVKGRFTISRDNAKNTVYLQINSLKPEDTAVYYCAARVYPAYPRGYDYWGQGTQVNVSS,high polyreactivity
8,QVQHVESGRGLVQAGGSLRLSCAAYGRIPYKAMGWYKQAPGKERELVAAISRSGTRTYYADSVKGRYTISRDNAKNTVYLQMISLKPQDTAVYYCAAPVSGYSSDYWGQGTQVTVSS,high polyreactivity
9,QVQLQESGGGLEQAGGSLRMSCAANGNIFDSDIVGRYRQAPGKKRELVASITDGGITNYADSVKGRFTISRDNAKYTVYLQMNSQNPVDTAVYYCAAIAYPDIPTYFDYDSDFFYWGQGTQVTVSS,high polyreactivity
10,QVQLVESVRGLVQAGGSLRLSCDASAFIFRSYAMGWNRQAPGKERELVAVISRRGVNTHYADSVKGRFSISRDNAKNTVYLQINSLKPEDTAVYYCAAELSYRGYPYDYWGQGTQVTVSS,high polyreactivity
11,QVQLVESGGGLVQAGGSLRISCAASGSIFYPYAMGWYRQAPGKERELVAGITYRAGSTYYADSVKGRFTISRDNAKNTVYLQMNSLKPEDTAVYYCAASESYAFDWGQGTQVTVSS,high polyreactivity
12,QVQLVESGGGLVQAGGSLRLSCAASGSTFTHYVMGWYRQEPGKQREIVAAISDSGSTYYADSVKGRFTISRDNAKNTVYLQMNSLNPEDTAVYYCNADDVDFYYGYGYLYYDYWGQGTQVTVSS,low polyreactivity
13,QVQLVESGGGLVQEGGSLRLSCADSGITFWAYAMGWYRQAPGKERELVASISSGGSTYYADSVKGRFTISRDNAKNTVYLQMNSLKPEDTAVYYCNTQDRSEYDWGQGTQVTVSS,high polyreactivity
14,QVQLVESGGGLVQAGGSLRLICAASGRTFVPNVMGWYRQAPGKERELVAAITSGGSTYYADSVKGRFTISRDNAKNTVYLQMNSLKPEDTAVYYCAKRTSWKYGYWGQGTQVTVSS,high polyreactivity
15,QVQLVESGGGLVQAGGSLRLSCAASGLIFWYYAMGWYRQAPGTERELVASISSGGDTTYADSVKGRFTISRDNAKKTVYLQMNSLKPEDTAVYDCAAERYVRVWVAGILHYDYWGQGTQVTGSS,low polyreactivity
16,QVQLVESGGVLVQAGGSLRFSCAASGIIFDQYAMGWYRQAPGKEREFVAVITRSGGSTYYADSVKGRFTISRDNAKKTVYLQMNSLKPEDTAVYYCAAPRLLGKRRRTNDYWGQGTQVTVSS,high polyreactivity
17,QVQLVESGGGLVQAGGSLRLSCAASGSTFWSNTMGWYRQAPGKERELVASITTSGGRTYYADSVKGRFTISRDNAKNTVYLQMNSLKPEDTAVYYCAAGGRVRRRYGYWGQGTQVTVSS,high polyreactivity
18,QVQLVESGGGLVQAGGSLRLSCAASGSILRQYAMGWYRQAPGKERELVATITGDGSTNYADSVKGRFTISRDNAKNTVYLQMNSLKPEDTAVYYCNTALTYPYPNVEDLVYGFKLDYWGQGTQVTVSS,low polyreactivity
19,QVQLVESGGGLVQAGGSLRLSCAASGSIYQNAMGWYRQAPGKERELVAAITSSGGRTYADSVKGRFTISRDNAKNTVYLQMNSLKPEDTAVYYCAKDSTADELTGFDYWGQGTQVTVSS,low polyreactivity
20,QVQLVESGGGLVQAGGSLRLSCAASGLIFQVYDMGWYRQAPGKERELVAAISSGSNTNYADSVKGRFTISRDNAKNTVYLQMNSLKPEDTAVYYCAAGLYLQGPFDYWGQGTQVTVSS,low polyreactivity
21,EVQLEESGGGLVQAGGSLRLSCPASGLIFGLYAMGWYRQAPGKERELVAAISYRTDSTYADSVKGRFTISRDNAKNTFYLQKNSLIPEDTAVYYCAADLRVSVGYYYWGQGTQVTVSS,low polyreactivity

# From the nanobody polyreactivity screen of Harvey et al. (2022)
